Data as given in article PMC12946505, “RrMYB2 Regulates Drought Stress via RrJMJ12‐Dependent Epigenetic Modification in Rosa rugosa”.

Target: RrJMJ12-C (Rosa rugosa, UniProt A0A2P6P5A5 1371-1493)
Test: EMSA; unlabeled cold probe control; EMSA/Gel-Shift Kit (Beyotime) binding buffer, 30 min at 24 C; salt and pH not stated
Details: protein: recombinant; tags: GST (pGEX4T-1); label: biotin; blunt

Chain of RrJMJ12-C (A0A2P6P5A5 entry or part of it): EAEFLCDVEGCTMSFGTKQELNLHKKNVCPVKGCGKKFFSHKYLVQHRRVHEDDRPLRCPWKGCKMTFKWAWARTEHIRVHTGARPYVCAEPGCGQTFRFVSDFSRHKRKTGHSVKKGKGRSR

Binder | binding result
Probe1 (dsDNA) DNA 1: CTCTCTCTCTCTCTCTCTCTGTTTGCGCCAAAACA DNA 2: TGTTTTGGCGCAAACAGAGAGAGAGAGAGAGAGAG | binds
Probe2 (dsDNA) DNA 1: TTTCTCATGAACCCTCTGCTTTCTCATCTTGGGT DNA 2: ACCCAAGATGAGAAAGCAGAGGGTTCATGAGAAA | binds
Probe3 (dsDNA) DNA 1: GTCTTATTTTTCTCTGTTTTCTTTTTTGGTATT DNA 2: AATACCAAAAAAGAAAACAGAGAAAAATAAGAC | binds
Probe4 (dsDNA) DNA 1: ATGACCCCCTTTTGCTCTGCTCTGTCTTTCTAGT DNA 2: ACTAGAAAGACAGAGCAGAGCAAAAGGGGGTCAT | binds
Probe5 (dsDNA) DNA 1: TAATTAGGTATCTCTGCTCGAGTTCTTTTG DNA 2: CAAAAGAACTCGAGCAGAGATACCTAATTA | binds
